Protein stability index data for 40 sequences are collected here from the supplement of paper PMC9732359.

± gives the uncertainty stated by the source.

This series can be described thus: protein stability index of a GFP-peptide fusion (yeast GPS) (PSI 1-4); higher = more stable; sorted into four equal gates, so the index is relative within each strain. In short, it runs like this: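 Plasmids isolated from each sorting gate were PCR-amplified and Illumina-sequenced, and barcodes assigned the reads to strains. The gates, four of equal size, were set by GFP/Cherry fluorescence ratio on mid-log cultures in leucine-free medium. These cultures were yeast carrying a pooled library of tiled 17-residue yeast protein peptides fused downstream of GFP on a plasmid that also expresses Cherry. The protein stability index is the sum of every gate's read frequency times its gate number.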

For the sequence MIIDEGHRMKNAQSKLS [SNF2], the protein stability index was determined as 1.45 ± 0.072 (doa10∆), 1.98 ± 0.061 (pdr5∆), 1.67 ± 0.089 (san1∆) and 1.93 ± 0.089 (ubr1∆).
With MINGVYYNEISRDLDIS [POP6], the protein stability index worked out at 2.09 ± 0.26 (doa10∆), 1.21 ± 0.14 (pdr5∆) and 1.76 ± 0.12 (ubr1∆).
With MITKRILEVGALASIQT [RPN12], the protein stability index runs as follows: (doa10∆) 1.63 ± 0.083; (san1∆) 2.14 ± 0.22.
With MIVPVRCFSCGKVVGDK [RPB10], the protein stability index reads like this: (doa10∆) 2.64 ± 0.17; (pdr5∆) 2.59 ± 0.12; (san1∆) 2.13 ± 0.1; (ubr1∆) 2.66 ± 0.092.
As for MKYAVSKTSENKVSNTV [SIR2], the protein stability index runs as follows: (doa10∆) 2.99 ± 0.13; (pdr5∆) 3.16 ± 0.062; (san1∆) 3.15 ± 0.091; (ubr1∆) 2.98 ± 0.052.
In the same order, the values of MLRRHAAPPSTNFEILN [DIS3] are 1.87 ± 0.11, 1.8 ± 0.1, 1.71 ± 0.18 and 2.93 ± 0.074.
On the same counts, the results for MMVNISVLISIPLDNYD [PCI8] are 1.43 ± 0.038, 1.42 ± 0.044, 1.72 ± 0.065 and 1.41 ± 0.037.
Turning to MNVSTSTFQTRRRRLKK [RPB4], the protein stability index stood at 3.39 ± 0.2 (doa10∆), 3.43 ± 0.13 (pdr5∆) and 3.38 ± 0.14 (ubr1∆).
On to MNYLLDNKINEIKLLEI [CSI1], for which the protein stability index amounted to 2.91 ± 0.12 (doa10∆), 2.81 ± 0.098 (pdr5∆), 2.67 ± 0.069 (san1∆) and 2.89 ± 0.091 (ubr1∆).
On the same counts, the results for MPNDNKTPNRSSTPKFT [SIR4] are 2.66 ± 0.1, 2.55 ± 0.19, 3 ± 0.062 and 3.09 ± 0.086.
On the same counts, the results for MPQSFTSIARIGDYILK [QCR7] are 3.35 ± 0.2, 3.33 ± 0.12, 3.04 ± 0.15 and 3.1 ± 0.062.
For the sequence MPYTINELLEMVGLASG [BRR2], the protein stability index reads like this: (doa10∆) 2.56 ± 0.049; (pdr5∆) 2.31 ± 0.057; (san1∆) 2.58 ± 0.052; (ubr1∆) 2.52 ± 0.031.
Take MQAIADSFSVPNRLVKE [PRE2]: the protein stability index by setting is: (doa10∆) 2.94 ± 0.14; (pdr5∆) 3.02 ± 0.24; (san1∆) 3.03 ± 0.14.
Regarding MQKHGYIGEFEYIDDHR [RPS22A], the protein stability index (doa10∆) amounted to 3.16 ± 0.083, the protein stability index (pdr5∆) was 3.19 ± 0.084, the protein stability index (san1∆) was determined as 2.93 ± 0.07 and the protein stability index (ubr1∆) was determined as 3.24 ± 0.093.
In the same order, the values of MQSTSPAVKQWDLLPEP [SWI1] are 2.73 ± 0.19, 1.5 ± 0.11, 1.36 ± 0.27 and 1.07 ± 0.14.
As for MRELGLIQSTEFPSITS [YOR098C/NUP1], the protein stability index by setting is: (doa10∆) 3.12 ± 0.1; (pdr5∆) 3.29 ± 0.092; (san1∆) 2.21 ± 0.12; (ubr1∆) 3.17 ± 0.078.
On to MRILPRETDPLVYNMTS [RPT4], for which the protein stability index is, setting by setting: (doa10∆) 3.07 ± 0.078; (pdr5∆) 2.85 ± 0.065; (san1∆) 3.18 ± 0.06; (ubr1∆) 2.73 ± 0.057.
In the case of MSAAPVQDKDTLSNAER [GAL11], the protein stability index was determined as 3.6 ± 0.15 (doa10∆), 3.07 ± 0.16 (pdr5∆), 3.34 ± 0.073 (san1∆) and 3.04 ± 0.079 (ubr1∆).
In the same order, the values of MSAKAQNPMRDLKIEKL [RPL11A] are 3.39 ± 0.16, 3.26 ± 0.11, 3.46 ± 0.11 and 3.61 ± 0.24.
As for MSAPEAQQQKRGGFGGR [RPS2], the protein stability index (pdr5∆) came to 3.25 ± 0.13, the protein stability index (san1∆) is 3.28 ± 0.1 and the protein stability index (ubr1∆) stood at 3.33 ± 0.17.
Take MSASNANDFQLTIVTCK [SRB8]: the protein stability index reads like this: (doa10∆) 2.33 ± 0.044; (pdr5∆) 2.41 ± 0.037; (san1∆) 2.42 ± 0.043; (ubr1∆) 2.03 ± 0.031.
In the same order, the values of MSDFQKEKVEEQEQQQQ [RPS20] are 2.87 ± 0.15, 3.17 ± 0.15, 3.16 ± 0.08 and 3.51 ± 0.085.
MSEQQWREQLRNRDIAL [ROX3]: the protein stability index is, setting by setting: (doa10∆) 2.98 ± 0.071; (pdr5∆) 2.85 ± 0.056; (san1∆) 3 ± 0.054; (ubr1∆) 2.42 ± 0.048.
Turning to MSGGKGGKAGSAAKASQ [HTA1], the protein stability index is 3.18 ± 0.1 (doa10∆), 3.13 ± 0.1 (pdr5∆), 2.83 ± 0.1 (san1∆) and 3.24 ± 0.07 (ubr1∆).
The sequence MSIGTGSFKVVKGTNIS [RPO31] had a protein stability index (pdr5∆) of 2.19 ± 0.15.
On to MSKIQVAHSSRLANLID [SMB1], for which the protein stability index is, setting by setting: (doa10∆) 1.47 ± 0.096; (pdr5∆) 1.81 ± 0.15; (san1∆) 1.09 ± 0.14; (ubr1∆) 1.2 ± 0.15.
With MSNQALYEKLEQTRTIL [SRB6], the protein stability index (doa10∆) was 3.11 ± 0.3.
Turning to MSPFLRKVVKPSSLNSD [SRB4], the protein stability index by setting is: (doa10∆) 2.41 ± 0.058; (pdr5∆) 2.87 ± 0.061; (san1∆) 2.03 ± 0.081; (ubr1∆) 2.34 ± 0.044.
In the same order, the values of MSQAVNAKKRVFKTHSY [RPS15] are 2.57 ± 0.055, 1.72 ± 0.035, 2.19 ± 0.11 and 2.63 ± 0.061.
On the same counts, the results for MSSNTSSVMSSPRVEKR [YOR098C/NUP1] are 3.18 ± 0.084, 3.18 ± 0.093, 3.15 ± 0.078 and 3.01 ± 0.088.
For MSTDVAAAQAQSKIDLT [SEM1], the protein stability index reads like this: (doa10∆) 2.91 ± 0.079; (pdr5∆) 2.82 ± 0.095; (san1∆) 2.98 ± 0.079; (ubr1∆) 2.88 ± 0.083.
In the same order, the values of MSTESALSYAALILADS [RPP1A] are 1.75 ± 0.062, 1.97 ± 0.073, 1.72 ± 0.073 and 1.83 ± 0.046.
In the same order, the values of MTAMRLMLKKLKNSIMS [YML031W/NDC1] are 1.6 ± 0.085, 1.99 ± 0.087, 2.16 ± 0.12 and 2.28 ± 0.059.
In the same order, the values of MTAVRRSTRIRTKSQVI [IRR1] are 2.9 ± 0.15, 3.23 ± 0.081, 3.42 ± 0.077 and 3.38 ± 0.1.
Take MTIDDSNRLLMDVDQFD [YJR042W/NUP85]: the protein stability index is, setting by setting: (pdr5∆) 3.63 ± 0.21; (san1∆) 3.25 ± 0.098; (ubr1∆) 3.51 ± 0.2.
Turning to MTLEDNNVTSNPSEFTP [SSN2], the protein stability index was 2.75 ± 0.069 (doa10∆), 3.03 ± 0.067 (pdr5∆), 2.92 ± 0.068 (san1∆) and 3.16 ± 0.064 (ubr1∆).
On the same counts, the results for MTTPQNISSSQQLLPAP [DSN1] are 2.82 ± 0.049, 2.89 ± 0.04, 2.74 ± 0.036 and 2.81 ± 0.038.
In the same order, the values of MTTQQEEQRSDTKNSKS [ISW2] are 3.26 ± 0.17, 3.08 ± 0.18, 2.73 ± 0.26 and 3.2 ± 0.19.
MTVAHLIECLLSKVAAL [RPB2]: the protein stability index is, setting by setting: (doa10∆) 1.97 ± 0.084; (pdr5∆) 2.01 ± 0.074; (san1∆) 1.84 ± 0.1; (ubr1∆) 1.54 ± 0.054.
In the case of MVEGDSYVETLDSMIEL [MED1], the protein stability index is, setting by setting: (doa10∆) 3.25 ± 0.084; (pdr5∆) 3.24 ± 0.1; (san1∆) 3.33 ± 0.051; (ubr1∆) 3.19 ± 0.053.
